Reference: PMC3322551

Target: porcine plasminogen (porcine)
Assay: SPR

Substance | Kd | kon
F3_(P146/J), recombinant C-terminal fragment of P146 (MHJ_0663) of Mycoplasma hyopneumoniae strain J (domain or fragment) | 39 nM | 46000 M⁻¹ s⁻¹
F3_(P146/JΔK), strain J F3_(P146) without its C-terminal lysine (domain or fragment) | 210 nM | 13000 M⁻¹ s⁻¹
F3_(P146/232), recombinant C-terminal fragment of P146 (Mhp684) of Mycoplasma hyopneumoniae strain 232 (domain or fragment) | 46 nM | 170000 M⁻¹ s⁻¹
F3_(P146/232ΔR), strain 232 F3_(P146) without its C-terminal arginine (domain or fragment) | 220 nM | 13000 M⁻¹ s⁻¹
